Reference: publication PMC12700175

Biological target: Pyruvate kinase M2 (PKM2) of mouse retina (mouse (endogenous in retina)) (UniProt P52480)
Test: cross-linking

stoichiometry N: 4
Substance: Pyruvate kinase M2 (PKM2) of mouse retina (from UniProt P52480 1-531) (enzyme)
